Results reported in patent US6492106B1, “Mammalian proteins that bind to FKBP12 in a rapamycin-dependent fashion” (The Johns Hopkins University, priority 1994, dated 2002).
Entries after “also recorded” stand apart in the source; their conditions may differ. One block for each molecule: values may come before it.

Experiments:
[1] = target: RAFT1 (Rapamycin And FKBP12 Target 1), 245 kDa protein (rat) (UniProt P42346); assay: DSS crosslinking in heparin column eluate with 1 uM rapamycin plus 1 uM FK506 (small-molecule competitor)
[2] = target: RAFT2 (Rapamycin And FKBP12 Target 2), 35 kDa protein; assay: as above
[3] = target: FKBP12 / RAFT1 (245 kDa) and RAFT2 (35 kDa) (Rattus norvegicus, UniProt P42346+Q62658); assay: Crosslinking assay: 32P-FKBP12 with heparin column eluate of rat brain cytosol

reduction of crosslinked band intensity [1]: 50%
reduction of crosslinked band intensity [2]: 50%
Molecule: 32P-radiolabeled FKBP12 probe (recombinant rat FKBP12 with two consensus PKA sites added at the N-terminus, cleaved from GST with thrombin) (from UniProt Q62658 1-108)

reduction of the intensities of the crosslinked bands ([3]; equal concentrations (1 μM) of rapamycin and FK506): approximately 50%
Molecule: C=CC[C@@H]1/C=C(\C)C[C@H](C)C[C@H](OC)[C@H]2O[C@@](O)(C(=O)C(=O)N3CCCC[C@H]3C(=O)O[C@H](/C(C)=C/[C@@H]3CC[C@@H](O)[C@H](OC)C3)[C@H](C)[C@@H](O)CC1=O)[C@H](C)C[C@@H]2OC [FK506, reference compound]

B1: unlabeled FKBP12: immunophilin receptor protein for FK506 and rapamycin, used unlabeled in excess (1 μM) as competitor (protein)
chain: GVQVETISSGDGRTFPKRGQTCVVHYTGMLEDGKKFDSSRDRNKPFKFTLGKQEVIRGWEEGVAQMSVGQRAKLIISPDYAYGATGHPGIIPPHATLVFDVELLKLE
antagonism of rapamycin-induced crosslinking of 32P-FKBP12 to the target proteins ([3]; competitor at 1 μM, all rapamycin concentrations tested): prevent the rapamycin-dependent association; also recorded: completely suppressed the appearance of the crosslinked bands
